B1: β-glucosidase B (BglB) (Paenibacillus polymyxa; L339M) (protein)
chain: MSENTFIFPATFMWGTSTSSYQIEGGTDEGGRTPSIWDTFCQIPGKVIGGDCGDVACDHFHHFKEDVQLMKQLGFLHYRFSVAWPRIMPAAGIINEEGLLFYEHLLDEIELAGLIPMLTLYHWDLPQWIEDEGGWTQRETIQHFKTYASVIMDRFGERINWWNTINEPYCASILGYGTGEHAPGHENWREAFTAAHHILMCHGIASNLHKEKGLTGKIGITLNMEHVDAASERPEDVAAAIRRDGFINRWFAEPLFNGKYPEDMVEWYGTYLNGLDFVQPGDMELIQQPGDFLGINYYTRSIIRSTNDASLLQVEQVHMEEPVTDMGWEIHPESFYKLMTRIEKDFSKGLPILITENGAAMRDELVNGQIEDTGRHGYIEEHLKACHRFIEEGGQLKGYFVWSFLDNFEWAWGYSKRFGIVHINYETQERTPKQSALWFKQMMAKNGF
B2: β-glucosidase B (BglB) (Paenibacillus polymyxa; D38E) (protein)
chain: MSENTFIFPATFMWGTSTSSYQIEGGTDEGGRTPSIWETFCQIPGKVIGGDCGDVACDHFHHFKEDVQLMKQLGFLHYRFSVAWPRIMPAAGIINEEGLLFYEHLLDEIELAGLIPMLTLYHWDLPQWIEDEGGWTQRETIQHFKTYASVIMDRFGERINWWNTINEPYCASILGYGTGEHAPGHENWREAFTAAHHILMCHGIASNLHKEKGLTGKIGITLNMEHVDAASERPEDVAAAIRRDGFINRWFAEPLFNGKYPEDMVEWYGTYLNGLDFVQPGDMELIQQPGDFLGINYYTRSIIRSTNDASLLQVEQVHMEEPVTDMGWEIHPESFYKLLTRIEKDFSKGLPILITENGAAMRDELVNGQIEDTGRHGYIEEHLKACHRFIEEGGQLKGYFVWSFLDNFEWAWGYSKRFGIVHINYETQERTPKQSALWFKQMMAKNGF
B3: β-glucosidase B (BglB) (Paenibacillus polymyxa; L339S) (protein)
chain: MSENTFIFPATFMWGTSTSSYQIEGGTDEGGRTPSIWDTFCQIPGKVIGGDCGDVACDHFHHFKEDVQLMKQLGFLHYRFSVAWPRIMPAAGIINEEGLLFYEHLLDEIELAGLIPMLTLYHWDLPQWIEDEGGWTQRETIQHFKTYASVIMDRFGERINWWNTINEPYCASILGYGTGEHAPGHENWREAFTAAHHILMCHGIASNLHKEKGLTGKIGITLNMEHVDAASERPEDVAAAIRRDGFINRWFAEPLFNGKYPEDMVEWYGTYLNGLDFVQPGDMELIQQPGDFLGINYYTRSIIRSTNDASLLQVEQVHMEEPVTDMGWEIHPESFYKLSTRIEKDFSKGLPILITENGAAMRDELVNGQIEDTGRHGYIEEHLKACHRFIEEGGQLKGYFVWSFLDNFEWAWGYSKRFGIVHINYETQERTPKQSALWFKQMMAKNGF
B4: β-glucosidase B (BglB) (Paenibacillus polymyxa; D38W) (protein)
chain: MSENTFIFPATFMWGTSTSSYQIEGGTDEGGRTPSIWWTFCQIPGKVIGGDCGDVACDHFHHFKEDVQLMKQLGFLHYRFSVAWPRIMPAAGIINEEGLLFYEHLLDEIELAGLIPMLTLYHWDLPQWIEDEGGWTQRETIQHFKTYASVIMDRFGERINWWNTINEPYCASILGYGTGEHAPGHENWREAFTAAHHILMCHGIASNLHKEKGLTGKIGITLNMEHVDAASERPEDVAAAIRRDGFINRWFAEPLFNGKYPEDMVEWYGTYLNGLDFVQPGDMELIQQPGDFLGINYYTRSIIRSTNDASLLQVEQVHMEEPVTDMGWEIHPESFYKLLTRIEKDFSKGLPILITENGAAMRDELVNGQIEDTGRHGYIEEHLKACHRFIEEGGQLKGYFVWSFLDNFEWAWGYSKRFGIVHINYETQERTPKQSALWFKQMMAKNGF
B5: β-glucosidase B (BglB) (Paenibacillus polymyxa; L339A) (protein)
chain: MSENTFIFPATFMWGTSTSSYQIEGGTDEGGRTPSIWDTFCQIPGKVIGGDCGDVACDHFHHFKEDVQLMKQLGFLHYRFSVAWPRIMPAAGIINEEGLLFYEHLLDEIELAGLIPMLTLYHWDLPQWIEDEGGWTQRETIQHFKTYASVIMDRFGERINWWNTINEPYCASILGYGTGEHAPGHENWREAFTAAHHILMCHGIASNLHKEKGLTGKIGITLNMEHVDAASERPEDVAAAIRRDGFINRWFAEPLFNGKYPEDMVEWYGTYLNGLDFVQPGDMELIQQPGDFLGINYYTRSIIRSTNDASLLQVEQVHMEEPVTDMGWEIHPESFYKLATRIEKDFSKGLPILITENGAAMRDELVNGQIEDTGRHGYIEEHLKACHRFIEEGGQLKGYFVWSFLDNFEWAWGYSKRFGIVHINYETQERTPKQSALWFKQMMAKNGF
B6: β-glucosidase B (BglB) (Paenibacillus polymyxa; L339H) (protein)
chain: MSENTFIFPATFMWGTSTSSYQIEGGTDEGGRTPSIWDTFCQIPGKVIGGDCGDVACDHFHHFKEDVQLMKQLGFLHYRFSVAWPRIMPAAGIINEEGLLFYEHLLDEIELAGLIPMLTLYHWDLPQWIEDEGGWTQRETIQHFKTYASVIMDRFGERINWWNTINEPYCASILGYGTGEHAPGHENWREAFTAAHHILMCHGIASNLHKEKGLTGKIGITLNMEHVDAASERPEDVAAAIRRDGFINRWFAEPLFNGKYPEDMVEWYGTYLNGLDFVQPGDMELIQQPGDFLGINYYTRSIIRSTNDASLLQVEQVHMEEPVTDMGWEIHPESFYKLHTRIEKDFSKGLPILITENGAAMRDELVNGQIEDTGRHGYIEEHLKACHRFIEEGGQLKGYFVWSFLDNFEWAWGYSKRFGIVHINYETQERTPKQSALWFKQMMAKNGF

Substrate: O=[N+]([O-])c1ccc(O[C@@H]2O[C@H](CO)[C@@H](O)[C@H](O)[C@H]2O)cc1
Experiment: purified protein
Type: biochemical, Paenibacillus polymyxa
Conditions: 0.11-100 mM substrate, readings every minute for 15 min; triplicate

Protein	Km	kcat
B1	4.72 ± 0.82 mM	6.58 ± 0.302 s⁻¹
B2	2.72 ± 0.31 mM	0.272 ± 0.00667 s⁻¹
B3	4.44 ± 0.62 mM	9.53 ± 0.348 s⁻¹
B4	2.80 ± 0.55 mM	0.217 ± 0.01 s⁻¹
B5	24.3 ± 1.65 mM	9.47 ± 0.248 s⁻¹
B6	3.55 ± 0.26 mM	11.2 ± 0.222 s⁻¹

Reference: paper doi:10.1101/2025.05.22.655130v1
